Experimental data from publication PMC11375011, “Inducible auto-phosphorylation regulates a widespread family of nucleotidyltransferase toxins” (Nature Communications, 2024).
Entries after “also recorded” stand apart in the source; their conditions may differ.

Target: MenA1
Settings: sites T39

MenT1
other: observed/calculated Stokes radius ratio against the heterotrimer: weaker; reference 0.97; also recorded: same; reference 0.97
